Literature values in article PMC12525728, “Safety, Pharmacokinetics, Translational and Molecular Mechanistic Insights on the Prostate Cancer Recurrence Suppressor Pseurotin A” (Molecules, 2025).
Where two headings read alike, the source gives them in different places.

Parameters: method as in PMID 39441027
Conditions: cited from earlier work; for relative % reduction for LDL-C: propensity score matching analysis

B1: evolocumab (antibody, chains of the INN, looked up, V domains shown)
VH: EVQLVQSGAEVKKPGASVKVSCKASGYTLTSYGISWVRQAPGQGLEWMGWVSFYNGNTNYAQKLQGRGTMTTDPSTSTAYMELRSLRSDDTAVYYCARGYGMDVWGQGTTVTVSS
VL: ESALTQPASVSGSPGQSITISCTGTSSDVGGYNSVSWYQQHPGKAPKLMIYEVSNRPSGVSNRFSGSKSGNTASLTISGLQAEDEADYYCNSYTSTSMVFGGGTKLTVL
notes: FDA-approved marketed humanized monoclonal antibody that interferes with the PCSK9-LDLR PPI
For B1, the total cholesterol reduction (clinical trials, after 8 dosing weeks) is listed as −26.5%, the “relative % reduction for LDL-C” value (females) is listed as −42.7% and the “relative % reduction for LDL-C” value (males) is listed as −54.4%.
